Experimental data published in patent US20250108100A1, “C-TERMINAL FRAGMENT OF APOLIPOPROTEIN E AND APPLICATION THEREOF IN INHIBITING y-SECRETASE ACTIVITY” (SYNPHATEC (SHANGHAI) BIOPHARMACEUTICAL TECHNOLOGY CO., LTD., priority 2022, published 2025).
Entries after “also recorded” stand apart in the source; their conditions may differ.

What was measured:
5×FAD mice = assay: Amyloid plaques in brain of 5×FAD mice after AAV neuronal expression; format: in vivo, mouse
Procedure: 0-7 months old C57 wild-type mice and AD model mice (5×FAD mice [Tg6799], mice expressing APP and PS1 comprising pathogenic mutations. The expressed APP comprises three mutations: K670N/M671L, I716V, V717I; and PS1 comprises two mutations: M146L, L286V). The mice were given sufficient food and water, and were reared at room temperature with a 12 h/12 h light-dark cycle, and the feeding environment reached the SPF (Specific Pathogen Free) standard.
• a) The brain was taken by perfusion. The mice were perfused at the heart, the blood was washed out with 20 ml PBS, and then the mice were perfused with 20 ml 4% PFA. • b) Fixation and dehydration. The mice were fixed with 4% PFA at 4° C. for 24 hours, and then dehydrated with 30% sucrose at 4° C. • c) Mouse brain slices. After 24 hours of dehydration, the mice brain was cut into slices at a thickness of 40 μm, stored in frozen buffer solution or used for subsequent immunohistochemistry. • d) THS staining. The mouse brain slices were washed three times with ddH2O, 5 minutes each; soaked in 1% THS aqueous solution for 10 minutes; washed twice with 80% ethanol, each time for 3 minutes; washed once with 95% ethanol for 3 minutes. Immunohistochemistry was performed subsequently. If THS staining is not performed, the following immunohistochemistry was performed directly. • e) Immunohistochemistry. The mouse brain slices were washed three times with 1×PBS for 10 minutes each time; the cell membrane was permeated using 0.1% Triton-X100; the brain slices were blocked by using 5% donkey or goat serum; then the primary antibody was incubated at 4° C., shaken overnight (12-16 h); washed three times with 1×PBS for 10 minutes each time; the secondary antibody was incubated, shaken at room temperature for 1-2 h; washed three times with 1×PBS for 10 minutes each time. • f) Patching and sealing. • g) Imaging, 24 hours post sealing. • h) Images were processed and signal density was analyzed by Image J.
Adeno-associated virus AAV-CT (AAV2/9-hSyn-ApoE CT) and AAV-GFP (AAV2/9-hSyn-EGFP-WPRE-pA) expressed in neurons were purchased from Tertu Biotechnology Company.
1 μl of the adeno-associated virus prepared above was injected into the cerebral cortex (x, y, z, +/−1.6, 0, −1) and hippocampus (x, y, z, +/−1.5, −2, −1.5) of 1-month-old mice by using a stereotaxic injection device.
Human APP and PS1 with five fAD mutations are expressed in neurons of 5×FAD mice: K670N/M671L+I716V+V717I mutations in APP and M146L+L286V mutations in PS1 (Oakley et al., 2006). All mice were housed under a 12 h light-dark cycle (light from 8 am to 8 pm) with ad libitum access to food and water. All mouse procedures were performed in accordance with the Guide for the Care and Use of Laboratory Animals of the Chinese Academy of Sciences and the National Institutes of Health.
Mice were anesthetized with isoflurane and perfused with 4% PFA. Dissected mouse brains were fixed overnight in 4% PFA and cryoprotected overnight in 30% sucrose. A cryostat (Leica, CM3050S) was used to obtain frozen brain slices ([…]) from fixed and cryoprotected mouse brains. Floating slices were washed 3 times with ddH2O and then incubated with 1% THS (SIGMA) in water for 5 minutes at room temperature. Next, the slices were washed twice with 80% ethanol and once with 95% ethanol for 3 minutes each. The samples were washed with ddH2O and 3 times with 1×PBS before IHC.
After being deeply anesthetized with isoflurane, mice (5 weeks old) were placed in a stereotaxic apparatus (RWD Instruments). The zero point (x, y, z, 0, 0, 0) is Bregma. Lentivirus (lentivirus-GFP, lentivirus-ApoE and lentivirus-ApoE-IRES-GFP) and AAV (AAV2/9-hSyn-EGFP-WPRE-pA and AAV2/9-hSyn-ApoECT; purchased from Shanghai Taitool Bioscience Co. Ltd.) were injected into the cortex (x, y, z, +/−1.6, 0, −1) or hippocampus (x, y, z, +/−1.5, −2, −1.5), injected 1 ul on each injection site. The mice were then returned to their cages for rehabilitation after surgery.

mouse APP (mAPP) = assay: α-CTF produced by mouse APP (mAPP) expressed in HEK 293T cells; format: cell-based; conditions: HEK 293T cells transiently expressing mAPP
Procedure: Plasmids were transfected in HEK 293T or N2A cells for 36-48 hours and then lysed in cell lysis buffer [10% 1M tris-HCl (pH=6.8), 4% SDS, 20% glycerol, 0.01% bromophenol blue]. Lysates were shaken at room temperature for 10 min, then boiled for 10 min, and centrifuged at 12,000×g for 10 min. Proteins were run on 8% or 12% Tris-glycine SDS-PAGE and transferred to PVDF membranes (Life Technologies). Samples were incubated overnight at 4° C. with primary antibody diluted in 5% BSA buffer (in 1×TBST). After washing 3 times with 1×TBST, they were incubated with secondary antibody diluted in 5% BSA buffer (in 1×TBST) for 2 hours at room temperature. Finally, after washing 3 times with 1×TBST, the signal was detected by ECL Western blotting substrate (Solarbio, PE0010).

B1: ApoE CT: C-terminal fragment of ApoE, positions 216-299 of SEQ ID NO: 12; SEQ ID NO: 33 (protein)
chain: ARMEEMGSRTRDRLDEVKEQVAEVRAKLEEQAQQIRLQAEAFQARLKSWFEPLVEDMQRQWAGLVEKVQAAVGTSAAPVPSDNH
Q: Which results are given for B1?
A: average plaque size (5×FAD mice; AAV at 4 weeks, after 10 weeks, subiculum, vs GFP): significantly reduced; average area of each amyloid plaque (5×FAD mice; AAV at 4 weeks, six months expression, subiculum, vs GFP): smaller; percentage of total amyloid plaque area (5×FAD mice; after 10 weeks, subiculum): significantly reduced; plaque density (5×FAD mice; after 10 weeks, subiculum): significantly reduced; density of amyloid plaques (5×FAD mice; six months expression): decreases; also recorded: lower; proportion of total area of amyloid plaques (5×FAD mice; six months expression): smaller proportion; fluorescence intensity of amyloid plaques (5×FAD mice; six months expression, THS): weaker; α-CTF levels from mouse APP (mouse APP (mAPP)): increases α-CTF levels
